Reference: patent US20230173037A1, “Manipulating Glycogen in Alzheimer’s Disease, Epilepsy, Traumatic Brain Injury, and ALS as a Treatment” (University of Kentucky Research Foundation, priority 2020, published 2023)

Assay: Activity of enzymes to degrade glycogen under neutral pH
Type: biochemical
Settings: neutral pH of the cellular environment

B1: human pancreatic α-amylase: enzyme component of VAL-0417, degrades glycogen (protein, UniProt P04746 16-511, looked up)
Pancreatic alpha-amylase: QYSPNTQQGRTSIVHLFEWRWVDIALECERYLAPKGFGGVQVSPPNENVAIYNPFRPWWERYQPVSYKLCTRSGNEDEFRNMVTRCNNVGVRIYVDAVINHMCGNAVSAGTSSTCGSYFNPGSRDFPAVPYSGWDFNDGKCKTGSGDIENYNDATQVRDCRLTGLLDLALEKDYVRSKIAEYMNHLIDIGVAGFRLDASKHMWPGDIKAILDKLHNLNSNWFPAGSKPFIYQEVIDLGGEPIKSSDYFGNGRVTEFKYGAKLGTVIRKWNGEKMSYLKNWGEGWGFVPSDRALVFVDNHDNQRGHGAGGASILTFWDARLYKMAVGFMLAHPYGFTRVMSSYRWPRQFQNGNDVNDWVGPPNNNGVIKEVTINPDTTCGNDWVCEHRWRQIRNMVIFRNVVDGQPFTNWYDNGSNQVAFGRGNRGFIVFNNDDWSFSLTLQTGLPAGTYCDVISGDKINGNCTGIKIYVSDDGKAHFSISNSAEDPFIAIHAESKL
activity to degrade glycogen: best activity
